In paper PMC10786891, “Massively parallel profiling of RNA-targeting CRISPR-Cas13d” one finds Kd data, which are given here for 35 molecules.

The Kd is the concentration at which binding is half-saturated.

Positions count from the first letter of the chain named.

T1: EsCas13d, nuclease-dead (Eubacterium siraeum, UniProt B0MS50, R295A;H300A;R849A;H854A)
T1 sequence: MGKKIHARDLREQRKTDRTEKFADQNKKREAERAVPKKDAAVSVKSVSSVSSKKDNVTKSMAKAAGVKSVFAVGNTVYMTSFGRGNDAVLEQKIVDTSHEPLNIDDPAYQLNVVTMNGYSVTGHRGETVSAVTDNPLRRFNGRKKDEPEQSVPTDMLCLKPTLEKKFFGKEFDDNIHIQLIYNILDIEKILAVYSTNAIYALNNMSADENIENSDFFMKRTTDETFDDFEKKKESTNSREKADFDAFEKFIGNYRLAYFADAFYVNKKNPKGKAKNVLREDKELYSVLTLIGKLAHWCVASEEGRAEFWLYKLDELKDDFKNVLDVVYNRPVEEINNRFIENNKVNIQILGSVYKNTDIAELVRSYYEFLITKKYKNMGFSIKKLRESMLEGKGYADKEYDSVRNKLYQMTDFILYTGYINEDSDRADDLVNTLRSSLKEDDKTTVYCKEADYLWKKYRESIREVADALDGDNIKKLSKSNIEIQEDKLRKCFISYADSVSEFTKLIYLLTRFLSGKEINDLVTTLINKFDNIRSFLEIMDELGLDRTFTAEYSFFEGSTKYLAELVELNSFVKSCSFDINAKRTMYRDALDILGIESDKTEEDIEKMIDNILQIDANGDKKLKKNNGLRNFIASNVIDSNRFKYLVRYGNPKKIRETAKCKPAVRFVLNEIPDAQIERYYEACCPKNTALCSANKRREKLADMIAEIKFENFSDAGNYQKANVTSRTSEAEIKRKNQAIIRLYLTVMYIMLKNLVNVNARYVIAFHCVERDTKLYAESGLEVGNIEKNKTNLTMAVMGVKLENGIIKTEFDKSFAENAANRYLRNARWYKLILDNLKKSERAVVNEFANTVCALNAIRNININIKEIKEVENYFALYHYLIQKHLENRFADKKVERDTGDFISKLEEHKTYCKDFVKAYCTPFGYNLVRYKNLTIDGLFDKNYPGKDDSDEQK

B1: target 1 insA 3' of 12,insU 3' of 4 (mixed)
RNA 1: CACCCGUGCAAAAAUGCAGGGGUCUAAAACUGAGCGGAUAACCUCUCUAUGG
RNA 2: GGGAAUGGAUCCACAUCUACGAAUUCGUACCAUAGAGAGGAUUAUCCGCUUCACCGAGAUCGGAAGAGCACACGU
B2: target 1 insC 3' of 14,insC 3' of 3 (mixed)
RNA 1: B1 RNA 1
RNA 2: B1 RNA 2 with G39C, A41G, U51C
B3: target 1 insU 3' of 17,insG 3' of 1 (mixed)
RNA 1: B1 RNA 1
RNA 2: B1 RNA 2 with A36U, G37A, A38G, G39A, A41G, U51C, C52A, A53G
B4: target 1 insU 3' of 21,insA 3' of 11 (mixed)
RNA 1: B1 RNA 1
RNA 2: GGGAAUGGAUCCACAUCUACGAAUUCGUACCUAUAGAGAGGUAUAUCCGCUCACCGAGAUCGGAAGAGCACACGU
B5: target 2 MT 5'PFS UGU 3'PFS UGU (mixed)
RNA 1: CACCCGUGCAAAAUUGCAGGGGUCUAAAACCUUCUCCAAAUUGUUUCAUCCU
RNA 2: GGGAAUGGAUCCACAUCUACGAAUUCUGUAGGAUGAAACAAUUUGGAGAAGUGUAGAUCGGAAGAGCACACGU
B6: target 2 MT 5'PFS AGC 3'PFS AUC (mixed)
RNA 1: B5 RNA 1
RNA 2: B5 RNA 2 with U27A, U29C, U52A, G53U, U54C
B7: target 2 MT 5'PFS CAA 3'PFS CCG (mixed)
RNA 1: B5 RNA 1
RNA 2: B5 RNA 2 with U27C, G28A, U29A, U52C, G53C, U54G
B8: target 2 MT 5'PFS GUU 3'PFS AUA (mixed)
RNA 1: B5 RNA 1
RNA 2: B5 RNA 2 with U27G, G28U, U52A, G53U, U54A
B9: target 2 MT 5'PFS CAA 3'PFS CCA (mixed)
RNA 1: B5 RNA 1
RNA 2: B5 RNA 2 with U27C, G28A, U29A, U52C, G53C, U54A
B10: target 2 MT 5'PFS CGC 3'PFS UCC (mixed)
RNA 1: B5 RNA 1
RNA 2: B5 RNA 2 with U27C, U29C, G53C, U54C
B11: target 2 MT 5'PFS CAU 3'PFS CGC (mixed)
RNA 1: B5 RNA 1
RNA 2: B5 RNA 2 with U27C, G28A, U52C, U54C
B12: target 2 MT 5'PFS CAC 3'PFS UAC (mixed)
RNA 1: B5 RNA 1
RNA 2: B5 RNA 2 with U27C, G28A, U29C, G53A, U54C
B13: target 2 MT 5'PFS AGC 3'PFS AUG (mixed)
RNA 1: B5 RNA 1
RNA 2: B5 RNA 2 with U27A, U29C, U52A, G53U, U54G
B14: target 2 MT 5'PFS ACG 3'PFS UUC (mixed)
RNA 1: B5 RNA 1
RNA 2: B5 RNA 2 with U27A, G28C, U29G, G53U, U54C
B15: target 2 MT 5'PFS CAC 3'PFS UAA (mixed)
RNA 1: B5 RNA 1
RNA 2: B5 RNA 2 with U27C, G28A, U29C, G53A, U54A
B16: target 2 MT 5'PFS CGG 3'PFS CCC (mixed)
RNA 1: B5 RNA 1
RNA 2: B5 RNA 2 with U27C, U29G, U52C, G53C, U54C
B17: target 2 MT 5'PFS AGG 3'PFS UCU (mixed)
RNA 1: B5 RNA 1
RNA 2: B5 RNA 2 with U27A, U29G, G53C
B18: target 2 MT 5'PFS ACU 3'PFS UGU (mixed)
RNA 1: B5 RNA 1
RNA 2: B5 RNA 2 with U27A, G28C
B19: target 2 MT 5'PFS CUC 3'PFS AAU (mixed)
RNA 1: B5 RNA 1
RNA 2: B5 RNA 2 with U27C, G28U, U29C, U52A, G53A
B20: target 2 MT 5'PFS UCG 3'PFS UAU (mixed)
RNA 1: B5 RNA 1
RNA 2: B5 RNA 2 with G28C, U29G, G53A
B21: target 2 MT 5'PFS AGC 3'PFS AUU (mixed)
RNA 1: B5 RNA 1
RNA 2: B5 RNA 2 with U27A, U29C, U52A, G53U
B22: target 2 MT 5'PFS GCG 3'PFS UUA (mixed)
RNA 1: B5 RNA 1
RNA 2: B5 RNA 2 with U27G, G28C, U29G, G53U, U54A
B23: target 2 MT 5'PFS GUU 3'PFS AUG (mixed)
RNA 1: B5 RNA 1
RNA 2: B5 RNA 2 with U27G, G28U, U52A, G53U, U54G
B24: target 2 MT 5'PFS ACG 3'PFS AGC (mixed)
RNA 1: B5 RNA 1
RNA 2: B5 RNA 2 with U27A, G28C, U29G, U52A, U54C
B25: target 2 MT 5'PFS CGG 3'PFS CCG (mixed)
RNA 1: B5 RNA 1
RNA 2: B5 RNA 2 with U27C, U29G, U52C, G53C, U54G
B26: target 2 MT 5'PFS UCG 3'PFS UAG (mixed)
RNA 1: B5 RNA 1
RNA 2: B5 RNA 2 with G28C, U29G, G53A, U54G
B27: target 2 MT 5'PFS UCG 3'PFS UAA (mixed)
RNA 1: B5 RNA 1
RNA 2: B5 RNA 2 with G28C, U29G, G53A, U54A
B28: target 2 MT 5'PFS GUU 3'PFS AUU (mixed)
RNA 1: B5 RNA 1
RNA 2: B5 RNA 2 with U27G, G28U, U52A, G53U
B29: target 2 MT 5'PFS GCG 3'PFS UUC (mixed)
RNA 1: B5 RNA 1
RNA 2: B5 RNA 2 with U27G, G28C, U29G, G53U, U54C
B30: target 2 MT 5'PFS CGG 3'PFS CCA (mixed)
RNA 1: B5 RNA 1
RNA 2: B5 RNA 2 with U27C, U29G, U52C, G53C, U54A
B31: target 2 MT 5'PFS GUU 3'PFS AUC (mixed)
RNA 1: B5 RNA 1
RNA 2: B5 RNA 2 with U27G, G28U, U52A, G53U, U54C
B32: target 2 MT 5'PFS CGC 3'PFS UCA (mixed)
RNA 1: B5 RNA 1
RNA 2: B5 RNA 2 with U27C, U29C, G53C, U54A
B33: target 2 MT 5'PFS AUU 3'PFS UUU (mixed)
RNA 1: B5 RNA 1
RNA 2: B5 RNA 2 with U27A, G28U, G53U
B34: target 2 MT 5'PFS ACG 3'PFS AGA (mixed)
RNA 1: B5 RNA 1
RNA 2: B5 RNA 2 with U27A, G28C, U29G, U52A, U54A
B35: target 2 MT 5'PFS AGC 3'PFS AUA (mixed)
RNA 1: B5 RNA 1
RNA 2: B5 RNA 2 with U27A, U29C, U52A, G53U, U54A

The series deals with T1, EsCas13d, nuclease-dead. Briefly: crRNA (strand 1, pre-loaded); Mg2+; 40 mM Tris-HCl pH 7.5, 150 mM NaCl, 6 mM MgCl2, 1 mM DTT, 0.1% Tween-20, 0.2 mg/ml BSA; 25 C; 10 min per concentration, then washed. As to conditions: tags: His6-TwinStrep-SUMO cleaved; N-terminal SNAP kept (SNAP-Surface 488); label: 3' end held by stalled T7 RNA polymerase.
B1 displayed a Kd of 26.3 ± 1.7 nM.

Regarding B2, the Kd was determined as 45 ± 7 nM.

Turning to B3, the Kd came to 17.7 ± 2.1 nM.

Turning to B4, the affinity, expressed as Kd, was 49 ± 5 nM.

B5 showed a Kd of 18.9 ± 2.7 nM. This Kd is about 2.6-fold lower than that of the molecule before.

Molecule B6 had a Kd of 10.9 ± 2.8 nM.

For the molecule B7, the Kd came to 7.3 ± 2.9 nM.

Molecule B8 had a Kd of 13.3 ± 1.9 nM. This Kd is about 1.8-fold higher than that of the molecule before.

B9 registered a Kd of 10 ± 5 nM.

The molecule B10 had a Kd of about 60 nM.

The molecule B11 yielded a Kd of 3.4 ± 0.6 nM.

With B12, binding was characterised by a dissociation constant (Kd) of 1.66 ± 0.25 nM.

Molecule B13 had a Kd of 12.6 ± 2.9 nM.

In turn, B14 came in with a Kd of 16 ± 6 nM.

Regarding B15, the Kd is 2.3 ± 0.4 nM.

B16 gave a Kd of about 19 nM.

Regarding B17, the affinity, expressed as Kd, was 13.8 ± 2.1 nM.

In the case of B18, binding was characterised by a dissociation constant (Kd) of 8.1 ± 1 nM. This Kd lies about 1.7-fold lower than the previous one.

On to B19, for which binding was characterised by a dissociation constant (Kd) of 2.32 ± 0.27 nM. This Kd lies about 3.5-fold lower than the previous one.

On to B20, for which binding was characterised by a dissociation constant (Kd) of 34 ± 14 nM.

Regarding B21, the Kd turned out to be 6.8 ± 1.2 nM.

In turn, B22 returned a Kd of 21 ± 4 nM.

B23 displayed a Kd of 19.6 ± 2.4 nM.

In the case of B24, the Kd is 6.4 ± 1.1 nM.

In the case of B25, the affinity, expressed as Kd, was 4.7 ± 0.4 nM.

In turn, B26 gave a Kd of 27 ± 7 nM. Against the preceding molecule, the Kd is about 5.7-fold higher.

Regarding B27, the Kd is 15 ± 4 nM. This Kd lies about 1.8-fold lower than the previous one.

Molecule B28 displayed a Kd of 11.6 ± 1.4 nM.

For the molecule B29, the affinity, expressed as Kd, was 21 ± 4 nM.

The molecule B30 gave a Kd of 37 ± 18 nM.

In the case of B31, binding was put at a Kd of 15 ± 1.2 nM.

B32 came in with a Kd of 5.5 ± 1.7 nM. This Kd lies about 2.7-fold lower than the previous one.

Regarding B33, the Kd amounted to 32 ± 7 nM.

B34 registered a Kd of 7.8 ± 2.4 nM.

In turn, B35 yielded a Kd of 7.1 ± 1.3 nM.
